Experiment [1] deals with T1, Cathepsin F (UniProt Q9UBX1).
T1 sequence (looked up): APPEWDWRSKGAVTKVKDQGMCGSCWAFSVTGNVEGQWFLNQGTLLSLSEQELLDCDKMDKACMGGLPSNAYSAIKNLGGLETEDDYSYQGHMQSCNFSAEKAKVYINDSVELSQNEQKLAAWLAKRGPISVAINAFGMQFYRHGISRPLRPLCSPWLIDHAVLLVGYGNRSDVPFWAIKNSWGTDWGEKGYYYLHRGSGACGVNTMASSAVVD
The experiment is described as follows: cell-based or functional assay.

For experiment [2], the target named is fibroblast activation protein (FAP) on FAP-expressing human WI-38 fibroblasts (human), Q12884. The experiment is described as follows: competitive FACS, WI-38 cells, vs Cy5 tracer m3; A = pIC50 >8.0. The note with it: remark: other sources report otherwise.
Experiment [3] has as its target human fibroblast activation protein (FAP) on WI-38 fibroblasts (human) (UniProt Q12884). The experiment can be described thus: competitive FACS, WI-38 cells, Cy5-labeled peptide as competitor; C = pIC50 6.1 to 7.0.

Numbered stars: 1 amine (or outer) side, 2 acyl side, 3 side chain; on linkers, the order of the positions; unused ones are H or OH. Bridge positions count the residues as written; N and C are the ends. Square brackets hold non-standard residues; d marks the D form. Primed or numbered codes have the meaning given here. * marks the point of attachment. Ttds″ = 1,13-diamino-4,7,10-trioxatridecan-succinamic acid spacer, O=C(CCC(=O)[*:2])NCCCOCCOCCOCCCN[*:1]; N4Ac = 6-Carboxy-1,4,8,11-tetraazaundecane, an N4-chelator, NCCNCC(CNCCN)C(=O)*; mXylylene = c1cc(C[*:1])cc(C[*:2])c1; 4Pal = N[C@@H](Cc1ccncc1)C(=O)O; Nle = CCCC[C@H](N)C(=O)O; Hexanoyl = CCCCCC(=O)*

B1: Cystatin C (protein, UniProt P01034 27-146, looked up)
chain: SSPGKPPRLVGGPMDASVEEEGVRRALDFAVGEYNKASNDMYHSRALQVVRARKQIVAGVNYFLDVELGRTTCTKTQPNLDNCPFHDQPHLKRKAFCSFQIYAVPWQGTMTLSKSTCQDA
Molecule B1 registered a Percentage inhibition (%), reference at 1 µM in experiment [1] of 74%.

B2: Hex-[Cys(3MeBn)-Pro-Pro-Thr-Glu-Phe-Cys]-Asp-NH2 (peptide)
peptide: Hexanoyl-CPPTEFCD-NH2
modifications: linker 1-7 via mXylylene
SMILES: CCCCCC(=O)N[C@H]1CSCc2cccc(c2)CSC[C@@H](C(=O)N[C@@H](CC(=O)O)C(N)=O)NC(=O)[C@H](Cc2ccccc2)NC(=O)[C@H](CCC(=O)O)NC(=O)[C@H]([C@@H](C)O)NC(=O)[C@@H]2CCCN2C(=O)[C@@H]2CCCN2C1=O
Consider B2, for which the pIC50 Category (FACS) in experiment [2] is more than 8 pIC50.

B3: N4Ac-Ttds-Nle-[Cys-(3MeBn)-Pro-Pro-Thr-Glu-Ppa-Cys]-OH (peptide)
peptide: N4Ac-[Ttds″][Nle]CPPTE[4Pal]C-OH
modifications: linker 3-9 via mXylylene
SMILES: CCCC[C@H](NC(=O)CCC(=O)NCCCOCCOCCOCCCNC(=O)C(CNCCN)CNCCN)C(=O)N[C@H]1CSCc2cccc(c2)CSC[C@@H](C(=O)O)NC(=O)[C@H](Cc2ccncc2)NC(=O)[C@H](CCC(=O)O)NC(=O)[C@H]([C@@H](C)O)NC(=O)[C@@H]2CCCN2C(=O)[C@@H]2CCCN2C1=O
In experiment [3], B3 gave a pIC50 of 6.1 to 7 pic50.
